Where no end group is shown, it is not given here. [ ]: non-standard residue; d: D form. pY = N[C@@H](Cc1ccc(OP(=O)(O)O)cc1)C(=O)O

The record followed here is publication PMC7619190, “Pervanadate-induced oxidation relieves autoinhibition of SRC protein tyrosine kinase” (Science signaling, 2026).

Series [1] concerns the molecule itself. Kind of series: non-reducing SDS-PAGE and immunoblot; HEK293T cells, PV time course, washed with PBS with catalase and NEM, lysed in 2% SDS with NEM; disulfide-linked dimer as slower migrating species. For orientation: A western blot detects proteins with antibodies after separation by electrophoresis.
The target in series [2] is T1, human SRC SH2 domain (Gln147-Lys252), wild type (human, UniProt P12931-1 147-252).
T1 construct: SRC SH2 domain, human, residues Gln147-Lys252, cloned in pETM11; numbering on UniProt P12931-1; Used after pretreatment with 1 mM TCEP (reduced) or 0.1 mM pervanadate (cysteines oxidised; which residues were oxidised in this sample was not determined); The two states are told apart by the assay (a1, a2); also called SH2^WT; SRC SH2^WT
In words: ITC; peptide (400 uM) titrated into SRC SH2 (40 uM) in the cell, 25 C, MicroCal PEAQ-ITC Automated; SH2 domain pretreated with 1 mM TCEP (reducing conditions). The note with it: both partners purified. On the technique in general: Isothermal titration calorimetry measures the heat released or taken up as one component is titrated into another.

B1: peroxiredoxin 1 (PRDX1) (natural protein, human (endogenous in HEK293T), UniProt Q06830 1-199, looked up)
chain: MSSGNAKIGHPAPNFKATAVMPDGQFKDISLSDYKGKYVVFFFYPLDFTFVCPTEIIAFSDRAEEFKKLNCQVIGASVDSHFCHLAWVNTPKKQGGLGPMNIPLVSDPKRTIAQDYGVLKADEGISFRGLFIIDDKGILRQITVNDLPVGRSVDETLRLVQAFQFTDKHGEVCPAGWKPGSDTIKPDVQKSKEYFSKQK
notes: peroxiredoxin 1, endogenous in HEK293T cells; Disulfide-linked dimer seen on non-reducing gels; source: endogenous, HEK293T lysate
In the case of B1, in series [1], the stoichiometry N (commonly a count of units in the complex or per binding partner) stood at 2.

B2: optimized SRC binding phosphopeptide (EPQpYEEIP) (peptide)
peptide: EPQ[pY]EEIP
notes: source: synthetic peptide, bought: Biosynth (95% purity)
On to B2, for which the binding result in series [2] is given as “binds”.
